Literature values as cited in patent US20080095848A1, “Pharmaceutical Composition For Topical Use In Form Of Xerogels Or Films And Methods For Production” (Ludwig-maximilian-University, priority 2004, published 2008).

Conditions: aqueous formulation, within two weeks

B1: EGF: growth factor; wound healing factor, protein unstable in aqueous formulation (protein, UniProt P01133 23-1207, looked up)
Pro-epidermal growth factor: PQHWSCPEGTLAGNGNSTCVGPAPFLIFSHGNSIFRIDTEGTNYEQLVVDAGVSVIMDFHYNEKRIYWVDLERQLLQRVFLNGSRQERVCNIEKNVSGMAINWINEEVIWSNQQEGIITVTDMKGNNSHILLSALKYPANVAVDPVERFIFWSSEVAGSLYRADLDGVGVKALLETSEKITAVSLDVLDKRLFWIQYNREGSNSLICSCDYDGGSVHISKHPTQHNLFAMSLFGDRIFYSTWKMKTIWIANKHTGKDMVRINLHSSFVPLGELKVVHPLAQPKAEDDTWEPEQKLCKLRKGNCSSTVCGQDLQSHLCMCAEGYALSRDRKYCEDVNECAFWNHGCTLGCKNTPGSYYCTCPVGFVLLPDGKRCHQLVSCPRNVSECSHDCVLTSEGPLCFCPEGSVLERDGKTCSGCSSPDNGGCSQLCVPLSPVSWECDCFPGYDLQLDEKSCAASGPQPFLLFANSQDIRHMHFDGTDYGTLLSQQMGMVYALDHDPVENKIYFAHTALKWIERANMDGSQRERLIEEGVDVPEGLAVDWIGRRFYWTDRGKSLIGRSDLNGKRSKIITKENISQPRGIAVHPMAKRLFWTDTGINPRIESSSLQGLGRLVIASSDLIWPSGITIDFLTDKLYWCDAKQSVIEMANLDGSKRRRLTQNDVGHPFAVAVFEDYVWFSDWAMPSVMRVNKRTGKDRVRLQGSMLKPSSLVVVHPLAKPGADPCLYQNGGCEHICKKRLGTAWCSCREGFMKASDGKTCLALDGHQLLAGGEVDLKNQVTPLDILSKTRVSEDNITESQHMLVAEIMVSDQDDCAPVGCSMYARCISEGEDATCQCLKGFAGDGKLCSDIDECEMGVPVCPPASSKCINTEGGYVCRCSEGYQGDGIHCLDIDECQLGEHSCGENASCTNTEGGYTCMCAGRLSEPGLICPDSTPPPHLREDDHHYSVRNSDSECPLSHDGYCLHDGVCMYIEALDKYACNCVVGYIGERCQYRDLKWWELRHAGHGQQQKVIVVAVCVVVLVMLLLLSLWGAHYYRTQKLLSKNPKNPYEESSRDVRSRRPADTEDGMSSCPQPWFVVIKEHQDLKNGGQPVAGEDGQAADGSMQPTSWRQEPQLCGMGTEQGCWIPVSSDKGSCPQVMERSFHMPSYGTQTLEGGVEKPHSLLSANPLWQQRALDPPHQMELTQ
modifications: Pro-epidermal growth factor
**Q.** Which loss of activity does the source give for B1 here?
**A.** 40%
